Test [1] concerns the target Arabidopsis thaliana CDC48A (Arabidopsis thaliana) (UniProt P54609). Put plainly: ITC.
Test [2] has the same target. Put plainly: cross-linking + SEC-MALS.
In test [3] the target is Arabidopsis thaliana NPL4 (Arabidopsis thaliana) (UniProt O82264). The experiment in a line: MST.
Test [4] shares this target. The experiment in a line: MST. This is another data set of the same source.
Test [5] concerns the target Arabidopsis thaliana CDC48A (Arabidopsis thaliana) (UniProt P54609). The experiment in a line: ITC. This is another data set of the same source.

Like-named read-outs stand apart in the source and are kept apart here.

This is an account of results in paper doi:10.1101/2025.03.28.645892.

Arabidopsis thaliana CDC48A (Arabidopsis thaliana), sequence (P54609 whole entry): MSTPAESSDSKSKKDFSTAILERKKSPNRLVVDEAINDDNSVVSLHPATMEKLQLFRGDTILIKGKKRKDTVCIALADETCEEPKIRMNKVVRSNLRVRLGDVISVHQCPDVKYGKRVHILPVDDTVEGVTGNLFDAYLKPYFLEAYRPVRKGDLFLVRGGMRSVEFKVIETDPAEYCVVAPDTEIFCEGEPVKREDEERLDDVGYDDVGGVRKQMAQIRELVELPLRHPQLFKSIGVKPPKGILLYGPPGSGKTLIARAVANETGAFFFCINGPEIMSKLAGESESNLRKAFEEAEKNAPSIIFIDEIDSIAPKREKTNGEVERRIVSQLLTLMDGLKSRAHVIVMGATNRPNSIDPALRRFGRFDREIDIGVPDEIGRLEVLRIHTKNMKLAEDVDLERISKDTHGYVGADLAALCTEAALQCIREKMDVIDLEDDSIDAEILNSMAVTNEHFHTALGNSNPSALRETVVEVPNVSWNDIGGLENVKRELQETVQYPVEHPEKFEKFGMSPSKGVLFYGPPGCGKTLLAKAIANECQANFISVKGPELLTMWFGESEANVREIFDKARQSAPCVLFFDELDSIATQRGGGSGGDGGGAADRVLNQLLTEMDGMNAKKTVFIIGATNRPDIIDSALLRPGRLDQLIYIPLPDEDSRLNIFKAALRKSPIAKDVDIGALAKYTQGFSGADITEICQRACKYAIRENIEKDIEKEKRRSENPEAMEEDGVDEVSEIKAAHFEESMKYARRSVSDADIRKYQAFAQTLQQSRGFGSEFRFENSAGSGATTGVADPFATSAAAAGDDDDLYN
Arabidopsis thaliana NPL4 (Arabidopsis thaliana), sequence (O82264 whole entry): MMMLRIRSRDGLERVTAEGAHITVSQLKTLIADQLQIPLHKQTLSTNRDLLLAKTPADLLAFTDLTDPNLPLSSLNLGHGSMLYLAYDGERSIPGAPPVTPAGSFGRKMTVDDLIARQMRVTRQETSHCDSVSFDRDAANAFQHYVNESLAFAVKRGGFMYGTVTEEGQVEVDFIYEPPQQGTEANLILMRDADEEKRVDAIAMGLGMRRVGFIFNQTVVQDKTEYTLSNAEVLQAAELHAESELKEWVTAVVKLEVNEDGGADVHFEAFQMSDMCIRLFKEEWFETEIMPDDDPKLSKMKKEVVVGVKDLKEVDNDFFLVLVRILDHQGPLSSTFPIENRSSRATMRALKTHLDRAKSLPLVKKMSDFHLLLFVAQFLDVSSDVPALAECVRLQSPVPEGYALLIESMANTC

Turning to “Arabidopsis thaliana UFD1B (from UniProt Q9SJV0 1-340) (natural protein)”, in test [1], the Kd came to 4.4 µM and the stoichiometry N (cofactor per AtCDC48A hexamer) was determined as 1. The stoichiometry N (copy per six AtCDC48A) in test [2] is 1.

On to “Arabidopsis thaliana UFD1A (natural protein)”, for which the Kd in test [3] and in test [4] was > 200 µM throughout.

In the case of “Arabidopsis thaliana NPL4 (from UniProt O82264 1-413) (natural protein)”, the Kd in test [5] came to 7.1 µM; in test [1], 2.6 µM. Further, in test [1], the stoichiometry N (AtNPL4 per AtCDC48A hexamer) was determined as 1. In addition, in test [2], the stoichiometry N (copy per six AtCDC48A) is 1.
